The values below come from patent publication US20220137067A1.

In experiment [1] the target is biotin beta-amyloid 1-42 peptide (Anaspec) (human). Nature of the experiment: cell-based or functional assay. To be noted: scale: % Relative Potency.
The target of experiment [2] is Recombinant human amyloid β 1-42 peptide (rPeptide) (human). Put plainly: ELISA on plate-adsorbed recombinant human Aβ 1-42, anti-human IgG-HRP detection, parallel line analysis; mean of three assays. To be noted: scale: % Relative Potency. For orientation: In an ELISA, binding on a coated surface is turned into a signal by an enzyme label.

B1: crenezumab (antibody, INN chains, looked up, V domains shown)
VH: EVQLVESGGGLVQPGGSLRLSCAASGFTFSSYGMSWVRQAPGKGLELVASINSNGGSTYYPDSVKGRFTISRDNAKNSLYLQMNSLRAEDTAVYYCASGDYWGQGTTVTVSS
VL: DIVMTQSPLSLPVTPGEPASISCRSSQSLVYSNGDTYLHWYLQKPGQSPQLLIYKVSNRFSGVPDRFSGSGSGTDFTLKISRVEAEDVGVYYCSQSTHVPWTFGQGTKVEIKR
B1 yielded a Phagocytosis Reporter Cell Potency in experiment [1] of 99.

B2: crenezumab light stress sample (2.4 million lux hours) (antibody, INN chains, looked up, V domains shown)
VH: B1 VH
VL: B1 VL
modifications: light-stressed degraded sample
In experiment [1], B2 returned a Phagocytosis Reporter Cell Potency of 86. For the same molecule, the Aβ Binding Potency (% Relative Potency) in experiment [2] stood at 84.
